# In the DeepSol protein solubility set:
# Assay: soluble on expression in E. coli; label from the status in PepcDB or PDB records
row,Sequence,soluble on expression in E. coli
1,MGSDKIHHHHHHRDMEIGDSGNVEIEMGEAAFVLKTSLSSLETKSLSDAGTLPASMDEAEINNCTLIFFEGTQVSSIMEGLFVNKENYIVKTKDGTKDDWAKVILKVKKPSPYSVMVIANSSKSFAGCQSENNIKDIIQDDKDALVKVGKMDISFDTDFAGYPTIAEALGKPLEIGAIPLSQLTARIELAEFNVSGFQGASVKEKVTVTGVDLLNLNPESYTINEQTHKNATYLSESKTCNVEVYNGVSDLPSTYSFVDNKNLLSFYSFRNLAKAESDQVKMQVRFKIGNSNEERTTRPFVINKEGNILHGVKSGYVYRLVVNMTIIGDKVETELLCYTRDWLNNTISIPMEDN,not soluble
2,MGSDKIHHHHHHMNNKKIFLFEFTVGTGLVPDELLAEGKLMFDILLNQFLDENYTVKTVLCEKIAKKYPKYNEINNLEIIVSDNYINSFKEGLDDSDFALAIAPEEDLILYNLTELIEESGCLNLGCEKSGVKIAGDKFLTYEAIKNAVNTPKTFPVKKYVVKNRLGCDSTHDTFDENYIVQEFIEGEPYSVIFIAKNKKFYPVCMNKQYIEKRYCGGEINIEHTLKEKAIIECKKTLEKIEGINGYVGVDLMINGEEISILEVNPRITTSICGIKSKPSIGKLLIDNALEKDIKFEVESCLKFKRNDFGFEFL,not soluble
3,MGSDKIHHHHHHMDVVLHIGAHRTASSALQHHLSRNRSKLAEAGVVYWGPKITRGGLFRGAIGGVEGALPWQERRFGKRCALRAEAVRQTGATHLMISDENMVGSLRGALEFTRLYSDAGRRIASYAHGFKTHRMTVALCIRDYADWWVSAMAFRLPRGGPLPRTQARERLVTQPRRWRHVVEDLAQALPDARLVVWSYEASAHALPTLVGDLTGVASADDRAGPRNLRPTAADLHDLMDACDIDPDMFHWPDGQFMPFTVHETEALRAQYQEDLAWLRAGARGFADYIDAPSAQTEAPTDLGRGNPDDGEHRQLA,not soluble
4,MRDFNNAQITRLKVRQNAVFEKLDLEFKDGLSAISGASGVGKSVLIASLLGAFGLKESNASNIEVELIAPFLDTEEYGIFREDEHEPLVISVIKKEKTRYFLNQTSLSKNTLKALLKGLIKRLSNDRFSQNELNDILMLSLLDGYIQNENKAFSPLLGALEEKFTRLEKLEKERRLLEDKKRFQKDLEERLNFEKMKLERLDLKEDEYERLLEQKKLLSSKEKLNDKIALAL,not soluble
5,MSLGNYNSQYENYYRNLQNRSIRTSSYYKSSGFNRKNLGEKIIKKIEFQLIGTLVLFLAVFSLREVITPETKAACNYIKYTVSYNYDYSQILSYIEGFNLNDVETYASKIDMDSLKNQSVDYIENLKARVTGEKTFGAKIKQEYCLPINGKIASHFKQKDKDVLGNQYLNNGVDIKANSDLDVKAIYDGTVEKVGEDKDFGKYVMVDNGDGVESKYSNMDSFEVQRGDGVTKGEVLGKVKKNDDASKSYLHFEIMYMGENQDPENYFTFKEGHHHHHH,not soluble
6,MGSDKIHHHHHHMIYLKIIRGFFSALREHPQSQSIPVIFVSALDETANQIQGLQGGAIDYLVKPVQPDILKLRLANLLATVNLQRDLQANYDNMLELSRLRDCVDELIHHDLKSPLSAISAMLQRLSQDKSCPKGWRSKLTAIHDLTMQSINTVNLSSEIFKIETGRFILKPERFSAHGLVKQVLHSMHVTFHHKQLIAFQFPDEDPNGQFDVLADETLTYSLLLNLIKNAFEASTMRTKVAIHLSIEQGNVVIQIENSGVVPEHIRPRFWDKYVTSQKEEGAGLGTYSACLLAKAQGGTTQLQVDDLQNKTIVTVCLPAAT,not soluble
7,MSAAQYARLVPKKYRSKTLPKIDRPWRPRVIAWAGPAAFYPNRFYEVDKWYKARIDKPEKLPEMHIIEPAEHMKSLKVLMQKSEIEQINIGFKRREVAGKAEKSAEDRIELERKSRHMQLKIDIDHLDVENLSIYRHFQVFDHLFGDNIFFENVQNLQVNFENDIVVHSGNVITANSTLKRPEITIESVGNGGGFNTLLMINLDGNALDLGKNGEIVQWMISNIPDGEAISAGSEIIDYLQPLPFYGTGYHRVAFVLFRHEKPVDFQIQGNSLDTRIHEISKFYKKHEATITPSAIRFFQTSYDNSVKMALHGLGMTSPLYEYEHRPALKPAQREFPEKPQPFDLYLDMYRDPKEVEQEMLEKRLAEVKLDYVKEPKWVDTDYVENKKKLPAWLHAKKLERDGVGHAKYHNDL,not soluble
8,MSLSRYPQLIQEQILKCKESWDSNSYKTSLRSFVYNKVNETDAILYTKPTNVSQEEWDKAIENKPSSDLIPIQVFGFEGLNNRNQIQVENVAQARVILNQILDKTKQLQQSHSFETSARIMKVQARNAQIEKRILKLGTQLAILKNRRLPLTISEEKMWGQFQELLKSSNDPAGLGKTNELWARLAVLRERAKTISEQLDSKLVIIGENGGQTGKPSASGDNNRVSDEVYDRIDKIAEILKNQQSGIAYLNDVLEKDNKALDSVVELKEGHHHHHH,soluble
9,MTFAWGRGSHGGAGMRIVQITDTHFSPTKAHFNGNWAPLAAWIEQSGADLVIHTGDLSVDGADRDDDIAFCMDLMREISAPMLLVPGNHDVGHLPGSLQPVNAGRLERWRRLVGPDYWMEDAGSWRLIGLDSLLMGFDDAEEEAQFDWLRTVLESRGGRRVALFAHKPLFVDAPGEGDTGYWSVRPAQRQRLYDLIATHDVALFASGHLHRAWQGKYENTSLVWGPSAALEHHHHHH,soluble
10,MIKVKEDKNEQVKKRWGDKPYYSLNYFLREKFQDKVFKISLDAGFSCPNRDGTISRGGCMFCSERGSGDFAGNRKFSISTQFEDIKDMMKNKWKNGKYIAYFQAYTNTYAPIKVLREKYSEAISKDGVVGLAIATRPDCLSEEVLDLIQEFSKRIYVWVELGLQTANDKVAKVINRGYDTIVFDDAVKKLRERKIDVVVHTIFGLPGEKPKDMLSTIDYVAHKEVQGIKIHLLHLMRGTPLVELYNNGQLTFMSEEEYVETVCRAITMLPQNIV,not soluble
11,MSLKMRNNVFVFDSPYCLLIYCILFNHQLHDTIYIYSDNVSLRDINFPGKERYIIKKGNNKTSKIFYYFCFLFRLIINPKLRKLISNRKDYRFLGQDHLFFSKPFLNEFILLEDGLANYRYPHYSRLYKLIIGGHTFGRSTKVNKILLSGMIDIIDPTINDKVEFFDLIAAWEKLNSVQKKEINHIFNYCIEDELVADVMILTQPLSEDGFISENEKIRLYDEIIKEYDDKKIVIRQHPRELTDYSLYFKDVKVNKVKAPVELVVLNSPMIKTAVTLFSGGIFNIPCREKIFKGTSFSPLLSKHFGNISNKFEVKGKKEGHHHHHH,soluble
12,MSLKITELSRDLTTGLTTATTSIADYFFGNTHHSHHVFYLNLTVLKAKRAAKVENKKFIDLKLIKLTSGNGGNGCVSFFKDNFKPMGPPDGGDGGNGGSIYLNVVDKNITSLHGLQKRYVAKGGQPGKGSQLDGKSGDDIIIDIPLGTIVRWIPDPQDFKKFVSQREGDALNDVFMEFDIDDRDFIQLNRGGYRPGEGWIFKEHDEEYFRDKDFFQDLNEKVTGYDEELLFEESYNDRFPIVGLDCNQVTQKPLLLLRGGKGGLGNMHFLTKEIKGPRFCKMGRPGITANFLLELKLIADLGLVGLPNAGKSSLLRAISKARPRVGHWEFTTLQPTVGTIFTRIDKDPFTVADIPGIIKGASQNKGMGLDFLRHIERSGGLVFVVSLESANPVDDLKILLEEVGPRRMKDKNVLVVATKADLSSEGANFKVLRDYIEHNHSEWKIVPVCAPKGENVERCIKLMSEIAQTKKKEGHHHHHH,soluble
13,LKRLFFTVSLAVVLSACQALPLNQSQAIVHDEYVSSGDLLPIEAITTIDGEELDLQQLGKRKLVILFATWCHDSNRLLKALNSSPLLEMEGIEIVAIAREEDLETVTAWRDKRGIKVALAVDNDRSIYRRFASGGIPRLITIGENNKIIKMNLAEGEQQLAKIV,not soluble
14,MDWGTELWDQFEVLERHTQWGLDLLDRYVKFVKERTEVEQAYAKQLRSLVKKYLPKRPAKDDPESKFSQQQSFVQILQEVNDFAGQRELVAENLSVRVCLELTKYSQEMKQERKMHFQEGRRAQQQLENGFKQLENSKRKFERDCREAEKAAQTAERLDQDINATKADVEKAKQQAHLRSHMAEESKNEYAAQLQRFNRDQAHFYFSQMPQIFDKLQDMDERRATRLGAGYGLLSEAELEVVPIIAKCLEGMKVAANAVDPKNDSHVLIELHKSGFARPGDVEFEDFSQPMNRAPSDSSLGTPSDGRPELRGPGRSRTKRWPFGKKNKTVVTEDFSHLPPEQQRKRLQQQLEERSRELQKEVGQREALKKMKDVYEKTPQMGDSASLEPQIAETLSNIERLKLEVQKYEAWLAEAESRVLSNRGDSLSRHARPPDPPASAPPDSSSNSASQDTKESSEEPPSEESQDTPIYTEFDEDFEEEPTSPIGHCVAIYHFEGSSEGTISMAEGEDLSLMEEDKGDGWTRVRRKEGGEGYVPTSYLRVTLN,soluble
15,SGGRPIQFFRRLAIWKYMKDYFPVSLVKTAELDPSRNYIAGFHPHGVLAAGAFLNLCTESTGFTSLFPGIRSYLMMLTVWFRAPFFRDYIMSGGLVSSEKVSADHILSRKGGGNLLAIIVGGAQEALDARPGAYRLLLKNRKGFIRLALMHGAALVPIFSFGENNLFNQVENTPGTWLRWIQNRLQKIMGISLPLFHGRGVFQYSFGLMPFRQPITTIVGKPIEVQMTPQPSREEVDRLHQRYIKELCKLFEEHKLKFNVPEDQHLEFC,soluble
16,MAHHHHHHMFSESDRRVRYTKGIGPQEASKEGGLLGDEGGKTWRMPKDKPQQNPASVDDNRIDDSIARGDGDNARDSGDGPGDNFLFTPTAARVDVHPLVLLSLVDHYARVNTKVTQKRRVAGLLLGRYKRLPDGTQLLDINNSFAVPFDEDPHNSDVWFVDTNYADEMFHMFRRVLPRVQVVGWYSAGPSFSVQPNDMLLHLLVADRFTANPVYCIVNTDPGNKGVPVLAYTTVQGREGVRSLEFRNIPTHLGAEEAEEIGIEHLLRDLTDSTITTLSTQIQERELSLAHLSCVLQSIEDYLQDVAEGLMPISEDVLSVLQELISLQPHIYHLKRSTEMIRHSNDQAIAMFIAAIGRCVGALYDVIANRRRINSEMVEVRARREQALKEKLEHEQHKAKEVVTTEKDENNNAK,not soluble
17,MGDEVGRGHFGYTCAAKIKKGARKGDAVAVKVIPKAKMTTSIAIEDVRREVKILKALAGHKNLVQFYDAYEDNDNVYIVMELCEGGELLDRILSRGGKYSEDDAKAVLVQILNVVSFCHIQGVVHRDLKPENFLFTSKDENSQLKAIDFGLSDFVKPDERLNDIVGSAYYVAPEVLHRCYSTEADVWSIGVIAYILLCGSRPFWARTESGIFRSVLKADPSYNEAPWPSLTLEAMDFVKRLLCKDPRRRMTAAQALSHPWIRNYNDIKLPLDILIFRLIKAYIRSSSLRKAALRALSKTLTVDELFYLKGQFSLLEPDRNGCITLDNIRMALTREATYAMKESRVQEILVSLSALQYRRMDFQEFCAAAVSVHQLEALDRWEQHARSAYDFFEKDGNRAIVIDELASELGLSPSVPLHVVLQDWIRHTDGKLSFLGFVKLLHGMSSRSLSKMR,not soluble
18,MYEYLLLTRKNALFSLAINEPSPTFALTIIAIFSSTNVRSSVVRLGCFRVEICCTCHTQYLKLEIMVIISYLKYVNLPCSFIFISNSFALVFKISAEV,soluble
19,MLVEGSELQSGAQQPRTEAPQHGELQYLRQVEHIMRCGFKKEDRTGTGTLSVFGMQARYSLRDEFPLLTTKRVFWKGVLEELLWFIKGSTNAKELSSKGVRIWDANGSRDFLDSLGFSARQEGDLGPVYGFQWRHFGADYKDMDSDYSGQGVDQLQKVIDTIKTNPDDRRIIMCAWNPKDLPLMALPPCHALCQFYVVNGELSCQLYQRSGDMGLGVPFNIASYALLTYMIAHITGLQPGDFVHTLGDAHIYLNHIEPLKIQLQREPRPFPKLRILRKVETIDDFKVEDFQIEGYNPHPTIKMEMAV,soluble
20,MLKGIPKIIPPELLKVLCEMGHGDQLVIADGNFPAESIGKNAIVVRMDGHGGGEILKAILTVFPLDTYVDKPATLMEKVPGDTVATPIWDVYAGLIKEHDERGADAIGSLERFAFYEQAKNAYCVIASGESAQYANLILQKGVVFNAE,soluble
